Data reported in US20090191117A1 (published 2009).

Assays:
[1] = molecular target: T1, αvβ5 integrin on HT-29 human colon carcinoma cells (human, UniProt P06756 31-1048; P18084 24-799); experiment: 125-I antibody saturation binding to HT-29 cells, n = 5
T1 construct: whole, on cells; also called HT-29 cells; HT29 cells
Method: (§1) Cells were plated 2 days prior to experiment, and 1×10⁵ cells/well at the time of study. […] Nonspecific binding was determined using 100× cold mAb in media. Cells were washed 3× and counted for bound radioactivity. Each curve represents 4-5 separate studies, and each data point in an experiment was the mean of triplicate samples.

[2] = molecular target: T2, human αVβ5 integrin, purified (human, UniProt P06756 31-1048; P18084 24-799); experiment: comparison of the KD values on integrin coated plates
T2 construct: Bought from Chemicon (Triton or octyl formulation); also called alphaVbeta5; aVb5

[3] = molecular target: T1, αvβ5 integrin on HT-29 human colon …; experiment: 125-I antibody saturation binding to HT-29 cells, rounded value
Method: as §1

[4] = molecular target: T2, human αVβ5 integrin, purified; experiment: saturation binding ELISA on αvβ5 coated plate, non-linear fit, n = 6
Method: (§2) αᵥβ₃ or αᵥβ₅ integrin was diluted to 1 μg/ml in Tris-buffered saline (TBS, 10 mM Tris, 100 mM NaCl, pH 7.5) containing 2 mM calcium chloride (TBS/Ca⁺⁺) and coated at 50 μl per well onto 96 well polystyrene Linbro plates (Flow/ICN) overnight at 4° C. Plates were washed with TBS/Ca⁺⁺ and blocked with 1% bovine serum albumin (BSA) in TBS/Ca⁺⁺ for 1 h at room temperature. Fifty microliters of diluted antibody was added in triplicate to coated wells and incubated for 2 h at 37° C. […] Plates were washed three times, and developed with o-phenylenediamine dihydrochloride substrate solution (OPD, Sigma) consisting of 0.1 M citric acid, 0.2M sodium phosphate, 0.01% H₂O₂ and 1 mg/ml OPD. Color development was stopped after 15 min at room temperature with 0.3 N H₂SO₄, and plates were read at OD₄₉₀ nm in the Molecular Dynamics plate reader.

[5] = molecular target: T3, human αVβ3 integrin, purified (human, UniProt P06756 31-1048; P05106 27-788); experiment: saturation binding ELISA on αvβ3 coated plate, non-linear fit, n = 6
T3 construct: mature; Detergent-extracted heterodimer purified from human placenta at Centocor, or bought from Chemicon; coated on plates or in solution; also called alphaVbeta3; aVb3
Method: as §2

[6] = molecular target: T4, integrin a5b1 from human placenta extract (human, UniProt P08648 42-1049; P05556 21-798); experiment: CNTO 95 affinity column on human placenta extract, Western blot with anti-integrin a5
T4 construct: mature; only the a5 subunit was probed; also called a5 containing heterodimers
Method: (§3) Western blot. […] The filters were blocked with 5% nonfat dry milk in TBS containing 0.05% Tween 20 (wash buffer) at room temperature for 1 hour and then incubated with anti-integrin antibodies (anti-a5 (P-19) Santa Cruz, goat polyclonal IgG 1:500 dilution; anti-aIIb, Chemicon, mouse monoclonal IgG1, 1:1000 dilution; anti-αV (Q-20), Santa Cruz, goat polyclonal IgG, 1:500 dilution; anti-b1 (4B7R), Santa Cruz, mouse monoclonal IgG1, 1:500 dilution; anti-b1 (N-20), Santa Cruz, goat polyclonal IgG, 1:500 dilution; anti-β3 (H-96), Santa Cruz, rabbit polyclonal IgG, 1:500 dilution; anti-β5 (H-96), Santa Cruz, rabbit polyclonal IgG, 1:500 dilution; anti-β6 (H-110), Santa Cruz, rabbit polyclonal IgG, 1:250 dilution). After thorough washing, filters were incubated with appropriate peroxidase-conjugated secondary antibodies (1:20000 dilution). The antigen-antibody complexes were visualized using SuperSignal West Pico Chemiluminescent Substrate kit (Pierce).

[7] = molecular target: T2, human αVβ5 integrin, purified; experiment: saturation binding ELISA on αvβ5 coated plate, non-linear fit, six experiments
Method: as §2

[8] = molecular target: T5, integrin aIIbb3 from human placenta extract (human, UniProt P08514 32-1039; P05106 27-788); experiment: CNTO 95 affinity column on human placenta extract, Western blot with anti-aIIb
T5 construct: mature; only the aIIb subunit was probed; also called aIIbβ3; GPIIb/IIIa
Method: as §3

[9] = molecular target: T1, αvβ5 integrin on HT-29 human colon …; experiment: 125-I antibody saturation binding to HT-29 cells
Method: as §1

[10] = molecular target: T3, human αVβ3 integrin, purified; experiment: EIA, purified antibody titrated on αVβ3 coated plates

T2 sequence (P06756 31-1048, form in doubt, chain 1 of 2): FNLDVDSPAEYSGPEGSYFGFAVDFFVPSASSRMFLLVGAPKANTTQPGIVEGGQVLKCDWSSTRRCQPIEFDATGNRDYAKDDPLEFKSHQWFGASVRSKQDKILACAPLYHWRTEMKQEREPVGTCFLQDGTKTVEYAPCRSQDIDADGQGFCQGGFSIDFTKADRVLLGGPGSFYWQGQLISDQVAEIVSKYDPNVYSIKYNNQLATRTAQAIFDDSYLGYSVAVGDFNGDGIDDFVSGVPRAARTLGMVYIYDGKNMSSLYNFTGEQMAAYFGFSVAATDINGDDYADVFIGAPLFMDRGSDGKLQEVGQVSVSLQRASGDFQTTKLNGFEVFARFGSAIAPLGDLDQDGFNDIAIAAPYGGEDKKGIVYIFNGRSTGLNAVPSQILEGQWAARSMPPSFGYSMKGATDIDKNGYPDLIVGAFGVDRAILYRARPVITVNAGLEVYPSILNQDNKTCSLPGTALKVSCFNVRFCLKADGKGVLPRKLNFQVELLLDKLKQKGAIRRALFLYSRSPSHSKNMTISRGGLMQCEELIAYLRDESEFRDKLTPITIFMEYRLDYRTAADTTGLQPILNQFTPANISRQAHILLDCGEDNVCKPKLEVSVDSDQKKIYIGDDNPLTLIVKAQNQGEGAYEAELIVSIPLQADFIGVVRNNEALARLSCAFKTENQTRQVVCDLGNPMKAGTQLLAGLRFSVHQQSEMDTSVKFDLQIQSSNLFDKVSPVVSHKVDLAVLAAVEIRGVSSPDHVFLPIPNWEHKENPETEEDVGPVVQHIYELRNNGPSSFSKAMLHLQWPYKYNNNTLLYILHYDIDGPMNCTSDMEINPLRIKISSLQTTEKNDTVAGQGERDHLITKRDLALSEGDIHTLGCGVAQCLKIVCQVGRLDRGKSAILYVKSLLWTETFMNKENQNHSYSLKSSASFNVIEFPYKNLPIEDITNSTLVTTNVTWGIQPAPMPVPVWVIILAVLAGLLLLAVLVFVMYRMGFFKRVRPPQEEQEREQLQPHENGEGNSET
T2 sequence (P18084 24-799, form in doubt, chain 2 of 2): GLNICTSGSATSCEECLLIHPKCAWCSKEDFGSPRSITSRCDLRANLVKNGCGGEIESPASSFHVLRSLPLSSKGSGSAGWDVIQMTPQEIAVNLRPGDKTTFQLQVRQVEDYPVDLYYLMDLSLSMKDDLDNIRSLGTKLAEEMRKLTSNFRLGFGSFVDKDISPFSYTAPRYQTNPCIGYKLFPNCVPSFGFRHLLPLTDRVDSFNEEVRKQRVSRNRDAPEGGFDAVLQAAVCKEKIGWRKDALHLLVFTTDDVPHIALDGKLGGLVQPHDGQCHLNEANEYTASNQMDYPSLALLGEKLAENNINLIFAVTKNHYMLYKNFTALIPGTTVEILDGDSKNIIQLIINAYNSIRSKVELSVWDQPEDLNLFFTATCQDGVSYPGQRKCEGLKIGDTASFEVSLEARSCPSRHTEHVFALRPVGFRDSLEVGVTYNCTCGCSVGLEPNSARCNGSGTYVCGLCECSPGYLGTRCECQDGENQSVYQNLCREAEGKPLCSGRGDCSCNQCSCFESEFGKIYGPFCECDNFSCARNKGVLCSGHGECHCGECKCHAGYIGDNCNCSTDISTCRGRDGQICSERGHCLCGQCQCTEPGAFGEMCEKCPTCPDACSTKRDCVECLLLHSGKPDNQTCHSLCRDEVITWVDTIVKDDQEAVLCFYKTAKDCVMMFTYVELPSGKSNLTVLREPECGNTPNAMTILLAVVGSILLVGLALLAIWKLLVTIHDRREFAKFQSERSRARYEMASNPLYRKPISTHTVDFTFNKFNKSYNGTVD
T1 sequence (P06756 31-1048, chain 1 of 2): as the sequence (P06756 31-1048, form in doubt, chain 1 of 2) above
T1 sequence (P18084 24-799, chain 2 of 2): as the sequence (P18084 24-799, form in doubt, chain 2 of 2) above
T3 sequence (P06756 31-1048, form in doubt, chain 1 of 2): as the sequence (P06756 31-1048, form in doubt, chain 1 of 2) above
T3 sequence (P05106 27-788, form in doubt, chain 2 of 2): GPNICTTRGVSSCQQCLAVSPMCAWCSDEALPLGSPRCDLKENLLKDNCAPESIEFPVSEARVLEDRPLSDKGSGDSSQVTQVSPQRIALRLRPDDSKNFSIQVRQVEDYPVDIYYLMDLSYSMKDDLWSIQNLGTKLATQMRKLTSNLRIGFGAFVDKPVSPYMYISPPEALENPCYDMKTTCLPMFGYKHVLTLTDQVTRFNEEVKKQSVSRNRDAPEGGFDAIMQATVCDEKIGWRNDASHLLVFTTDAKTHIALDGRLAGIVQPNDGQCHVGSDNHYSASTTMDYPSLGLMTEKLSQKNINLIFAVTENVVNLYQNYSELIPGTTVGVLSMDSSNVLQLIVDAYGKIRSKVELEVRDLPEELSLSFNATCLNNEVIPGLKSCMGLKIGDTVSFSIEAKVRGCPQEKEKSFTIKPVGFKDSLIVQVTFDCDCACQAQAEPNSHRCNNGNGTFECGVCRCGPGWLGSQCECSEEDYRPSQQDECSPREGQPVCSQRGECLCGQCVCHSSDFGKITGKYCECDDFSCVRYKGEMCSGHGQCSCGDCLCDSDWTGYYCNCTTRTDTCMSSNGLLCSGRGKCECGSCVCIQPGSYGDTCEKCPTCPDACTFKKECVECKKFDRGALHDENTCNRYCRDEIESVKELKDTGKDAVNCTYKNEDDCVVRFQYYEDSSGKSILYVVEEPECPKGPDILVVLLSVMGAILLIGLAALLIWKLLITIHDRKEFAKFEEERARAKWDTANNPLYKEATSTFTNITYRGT
T5 sequence (P08514 32-1039, chain 1 of 2): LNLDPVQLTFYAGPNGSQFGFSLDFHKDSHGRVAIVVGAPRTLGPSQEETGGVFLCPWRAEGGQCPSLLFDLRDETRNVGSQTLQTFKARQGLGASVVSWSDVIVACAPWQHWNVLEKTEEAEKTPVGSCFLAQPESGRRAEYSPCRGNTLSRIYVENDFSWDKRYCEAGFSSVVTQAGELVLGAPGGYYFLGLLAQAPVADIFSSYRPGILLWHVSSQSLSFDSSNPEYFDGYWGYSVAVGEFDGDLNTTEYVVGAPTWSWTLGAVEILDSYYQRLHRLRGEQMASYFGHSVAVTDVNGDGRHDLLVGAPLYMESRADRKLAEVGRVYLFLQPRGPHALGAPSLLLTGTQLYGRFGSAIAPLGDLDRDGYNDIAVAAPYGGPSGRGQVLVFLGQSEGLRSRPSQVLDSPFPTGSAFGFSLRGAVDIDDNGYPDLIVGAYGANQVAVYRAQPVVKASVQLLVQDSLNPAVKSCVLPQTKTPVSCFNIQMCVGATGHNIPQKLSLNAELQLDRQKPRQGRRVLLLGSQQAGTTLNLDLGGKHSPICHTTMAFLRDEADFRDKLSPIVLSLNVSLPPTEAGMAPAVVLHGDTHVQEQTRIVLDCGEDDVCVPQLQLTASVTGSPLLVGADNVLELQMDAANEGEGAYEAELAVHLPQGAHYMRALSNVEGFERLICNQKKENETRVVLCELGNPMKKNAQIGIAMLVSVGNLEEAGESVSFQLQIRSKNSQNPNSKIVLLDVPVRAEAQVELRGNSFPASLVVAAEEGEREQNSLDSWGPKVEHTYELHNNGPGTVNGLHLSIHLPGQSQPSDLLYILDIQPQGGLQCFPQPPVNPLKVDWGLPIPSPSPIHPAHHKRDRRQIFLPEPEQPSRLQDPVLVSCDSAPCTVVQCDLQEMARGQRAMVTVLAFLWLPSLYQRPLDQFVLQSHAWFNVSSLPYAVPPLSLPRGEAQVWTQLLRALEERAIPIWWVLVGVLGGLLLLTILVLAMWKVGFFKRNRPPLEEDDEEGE
T5 sequence (P05106 27-788, chain 2 of 2): as the sequence (P05106 27-788, form in doubt, chain 2 of 2) above

Kd [1]: 1.3 nM | fold higher affinity than for αvβ3 purified integrin [2]: ~8 fold | Kd [3]: 1 nM | Kd [4]: 0.25 nM | Kd [5]: 0.21 nM | binding result [6]: no binding | Kd [7]: 0.025 nM | binding result [8]: no binding | Kd [9]: 0.13 nM | EC50 [10]: 0.7 µg/mL
B1: CNTO 95 (antibody, V domains shown)
VH: QVQLVESGGGVVQPGRSRRLSCAASGFTFSRYTMHWVRQAPGKGLEWVAVISFDGSNKYYVDSVKGRFTISRDNSENTLYLQVNILRAEDTAVYYCAREARGSYAFDIWGQGTMVTVSS
VL: EIVLTQSPATLSLSPGERATLSCRASQSVSSYLAWYQQKPGQAPRLLIYDASNRATGIPARFSGSGSGTDFTLTISSLEPEDFAVYYCQQRSNWPPFTFGPGTKVDIK
notes: Fully human IgG1 kappa from a transgenic mouse hybridoma; also called GenO95; C371A
